Residue numbers refer to the chain shown, from its start.
B1: Recombinant BosR (BB0647) (natural protein)
chain: MNDNIIDVHSALEKVGITNDPVLLKNLTSELGMKASHSRNRIILYIASNPKEYFTAKEVYNKLIKEIPSLSKATVYNTLNILKERNILKDIKTTDQKETKFYLSLASTIAHFKCNKCNQVHPIQLDDIKDILKDKLGENWETKSIEIIYSGHCNNCYKKDTHNNNNVPDENKEITL
notes: BosR (BB0647), Fur/PerR homologue of Borrelia burgdorferi; bosR amplified with primers ZM69F and ZM69R and cloned into pET SUMO (pOY73); apparent mass ~18.7 kDa, as for native BosR; The protein contained 1.4 mol of zinc per mol of protein; also called rBosR; purified BosR; source: E. coli BL21-DE3, purified (Ni-NTA spin column, SUMO protease cleavage, Superdex 200); not shown: His6, N-terminal, …
B2: ZM157 (-24/-12 mutant) (dsDNA)
DNA 1: TTTAGTTTAAAACCATTTTTAAATTAAATTTTCACAGTTTTTGAATTCCAACAGGCAAAA
DNA 2: TTTTGCCTGTTGGAATTCAAAAACTGTGAAAATTTAATTTAAAAATGGTTTTAAACTAAA
B3: ZM132 (BS1) (dsDNA)
DNA 1: GGCCTTGCCGATTTAATTTACAATCAATTACAAAAAAGTAAATAATTCAAAAAATACTCC
DNA 2: GGAGTATTTTTTGAATTATTTACTTTTTTGTAATTGATTGTAAATTAAATCGGCAAGGCC
B4: ZM127 (BS2) (dsDNA)
DNA 1: TTTAGTTTAAAACCATTTTTAAATTAAATTGGCACAGTTTTTGCATGAAAATTAAGTAGT
DNA 2: ACTACTTAATTTTCATGCAAAAACTGTGCCAATTTAATTTAAAAATGGTTTTAAACTAAA
B5: ZM149 (dsDNA)
DNA 1: B2 DNA 1 with T31G, T32G, A44C, C48T, C49T
DNA 2: B2 DNA 2 with G12A, G13A, T17G, A29C, A30C
B6: ZM213 (DR1 mutant) (dsDNA)
DNA 1: ATTTTATATCCTAGGCCGTTTAAAACCATTTTTAAATTAAATTGGCACAGTTTTTGCATG
DNA 2: CATGCAAAAACTGTGCCAATTTAATTTAAAAATGGTTTTAAACGGCCTAGGATATAAAAT
B7: ZM223 (DR1 and DR2 mutant) (dsDNA)
DNA 1: B6 DNA 1 with A35G, A36G, T37C, T38C
DNA 2: B6 DNA 2 with A23G, A24G, T25C, T26C
B8: ZM219 (bosR upstream) (dsDNA)
DNA 1: AAAAAAATATGAAAATAAATAAATAATAAGTAGTAAAATATTAATAACTGGGTATAAAAT
DNA 2: ATTTTATACCCAGTTATTAATATTTTACTACTTATTATTTATTTATTTTCATATTTTTTT
B9: ZM220 (ZM219 DR mutant) (dsDNA)
DNA 1: B8 DNA 1 with A17G, A18G, A19C, T20C
DNA 2: B8 DNA 2 with A41G, T42G, T43C, T44C
B10: ZM156 (BS1 3' DR) (dsDNA)
DNA 1: GCTGAGATCTGTCGAATCAATTACAAAAAAGTAAATAATTCAAAAAATACTCCCCCTAAA
DNA 2: TTTAGGGGGAGTATTTTTTGAATTATTTACTTTTTTGTAATTGATTCGACAGATCTCAGC
B11: ZM211 (ZM156 DR mutant) (dsDNA)
DNA 1: B10 DNA 1 with A34G, A35G, T36C, A37C
DNA 2: B10 DNA 2 with T24G, A25G, T26C, T27C
B12: ZM126 (dsDNA)
DNA 1: TTGCATGGAAATTAAGTAGTAAAAACTTAATCACAATATTCAAGAAAGGGGAGAAAATAT
DNA 2: ATATTTTCTCCCCTTTCTTGAATATTGTGATTAAGTTTTTACTACTTAATTTCCATGCAA
B13: ZM216 (ZM215 DR mutant) (dsDNA)
DNA 1: TGGTTTAGATGGCCTTTTTTTCTCAATTCAGCAATTTCTGAATATAGAATTTTCATATCT
DNA 2: AGATATGAAAATTCTATATTCAGAAATTGCTGAATTGAGAAAAAAAGGCCATCTAAACCA
B14: ZM147 (dsDNA)
DNA 1: AAAAAGCTGAGATCTGTCGACATCCATGGTGGCACAGTTTTTGCATGAAAATTAAGTAGT
DNA 2: ACTACTTAATTTTCATGCAAAAACTGTGCCACCATGGATGTCGACAGATCTCAGCTTTTT
B15: ZM160 (5' of BS3) (dsDNA)
DNA 1: TCACAATATTCAAGAAAGGGGAGAAAATATAATAACTATGAACATATTTAGTAATGAGGA
DNA 2: TCCTCATTACTAAATATGTTCATAGTTATTATATTTTCTCCCCTTTCTTGAATATTGTGA
B16: ZM166 (-24/-12 and DR mutant) (dsDNA)
DNA 1: B2 DNA 1 with A22G, A23G, T24C, T25C
DNA 2: B2 DNA 2 with A36G, A37G, T38C, T39C
B17: ZM155 (BS1 5' DR) (dsDNA)
DNA 1: CTCAAAGCTTTGGCCTTGCCGATTTAATTTACAATCAATTACAAAGCTGAGATCTGTCGA
DNA 2: TCGACAGATCTCAGCTTTGTAATTGATTGTAAATTAAATCGGCAAGGCCAAAGCTTTGAG
B18: ZM210 (ZM155 DR mutant) (dsDNA)
DNA 1: B17 DNA 1 with A26G, A27G, T28C, T29C
DNA 2: B17 DNA 2 with A32G, A33G, T34C, T35C
B19: ZM218 (ZM217 DR mutant) (dsDNA)
DNA 1: AGTGTAAAAAGGCCAATCAATTTTTTCATTAAATATCCTTTTTATTTATTATGGTATTAA
DNA 2: TTAATACCATAATAAATAAAAAGGATATTTAATGAAAAAATTGATTGGCCTTTTTACACT

Target: the molecule itself
Experiment: SEC; purified BosR on a Superdex 200 column, calibrated with aldolase 158 kDa, ovalbumin 43 kDa and ribonuclease A 13.7 kDa; buffer A: 20 mM Tris, 20 mM NaCl, 100 mM L-arginine, pH 7.5
Conditions: not given
With B1 the “stoichiometry N” value was 2.

Each binder was assayed against T1, BosR (rBosR) (UniProt O51592 1-176) (assay: EMSA; binding not altered; 20 mM Hepes pH 7.5, 50 mM KCl, 1 mM MgCl2, 1 mM DTT, 5% glycerol, 100 ug/ml BSA, 50 ug/ml poly[d(A-T)], 30 fmol probe in 20 ul, 37 C 30 min). Conditions: protein: recombinant; tags: none (His6-SUMO tag removed by SUMO protease); chain copies: 2; label: digoxigenin 3' end; blunt.
B2: binds.

Each binder was assayed against T1, BosR (rBosR) (assay: EMSA; 20 mM Hepes pH 7.5, 50 mM KCl, 1 mM MgCl2, 1 mM DTT, 5% glycerol, 100 ug/ml BSA, 50 ug/ml poly[d(A-T)], 30 fmol probe in 20 ul, 37 C 30 min). Conditions: protein: recombinant; tags: none (His6-SUMO tag removed by SUMO protease); chain copies: 2; label: digoxigenin 3' end (terminal transferase); blunt.
B3 gave a Kd of 210 nM.
B4 showed a Kd of 36.6 nM.

Same assay, conditions: protein: recombinant; tags: none (His6-SUMO tag removed by SUMO protease); chain copies: 2; label: digoxigenin 3' end; blunt
B5: binds.
B6: binds.
B7: no binding.
B8: binds.
B9: no binding.
B10: binds.
B11: no binding.
B12: no binding.
B13: no binding.
B14: no binding.
B15: no binding.
B16: no binding.
B17: binds.
B18: no binding.
B19: no binding.

— publication PMC3037356, “BosR (BB0647) Controls the RpoN-RpoS Regulatory Pathway and Virulence Expression in Borrelia burgdorferi by a Novel DNA-Binding Mechanism” (PLoS Pathogens, 2011)
